Data on 6 sequences can be found in the supplement of paper PMC11246515.

± gives the standard deviation of the averaged measurements.

This data set in a line: total protein half-life in vivo (active degradation + dilution); higher = more stable protein.
[1] abbreviates: E. coli NCM3722 delta-clpP delta-lon delta-hslV, growth: N-lim chemostat, doubling time 6 h.
Where [2] appears, read: E. coli NCM3722 delta-hslV, growth: N-lim chemostat, doubling time 6 h.
[3] abbreviates: E. coli NCM3722 delta-lon, growth: N-lim chemostat, doubling time 6 h.
Where [4] appears, read: E. coli NCM3722 delta-smpB, growth: N-lim chemostat, doubling time 6 h.
Where [5] appears, read: wild type E. coli NCM3722, growth: C-lim chemostat, doubling time 3 h.
The mark [6] stands for this setting: wild type E. coli NCM3722, growth: C-lim chemostat, doubling time 6 h.
[7] abbreviates: wild type E. coli NCM3722, growth: C-lim chemostat, doubling time 12 h.
[8] abbreviates: wild type E. coli NCM3722, growth: N-lim chemostat, doubling time 6 h.
[9] abbreviates: wild type E. coli NCM3722, growth: N-lim chemostat, doubling time 12 h.
[10] abbreviates: wild type E. coli NCM3722, growth: P-lim chemostat, doubling time 6 h.
[11] abbreviates: wild type E. coli NCM3722, growth: P-lim chemostat, doubling time 12 h.
Where [12] appears, read: E. coli NCM3722 delta-clpP, growth: N-lim chemostat, doubling time 6 h.

Consider “MNRTDELRTARIESLVTPAELALRYPVTPGVATHVTDSRRRIEKILNGEDKRLLVIIGPCSIHDLTAAMEYATRLQSLRNQYQSRLEIVMRTYFEKPRTVVGWKGLISDPDLNGSYRVNHGLELARKLLLQVNELGVPTATEFLDMVTGQFIADLISWGAIGARTTESQIHREMASALSCPVGFKNGTDGNTRIAVDAIRAARASHMFLSPDKNGQMTIYQTSGNPYGHIIMRGGKKPNYHADDIAAACDTLHEFDLPEHLVVDFSHGNCQKQHRRQLEVCEDICQQIRNGSTAIAGIMAESFLREGTQKIVGSQPLTYGQSITDPCLGWEDTERLVEKLASAVDTRF”, for which the “total protein half-life in vivo” value runs as follows: under setting [1], 5.25 ± 0.74 h; under setting [2], 4.47 ± 0.041 h; under setting [3], 4.88 ± 0.15 h; under setting [4], 4.62 ± 0.51 h; under setting [5], 3.089 ± 0.021 h; under setting [6], 6.53 ± 1.7 h. In addition, the “total protein half-life in vivo” value was determined as 10.3 ± 0.59 h under setting [7]; 5.28 ± 0.75 h under setting [8]; 7.35 ± 0.6 h under setting [9]; 6.03 ± 0.34 h under setting [10]; 11.8 ± 0.39 h under setting [11].
With “MNNNDLVAKLWKLCDNLRDGGVSYQNYVNELASLLFLKMCKETGQEAEYLPEGYRWDDLKSRIGQEQLQFYRKMLVHLGEDDKKLVQAVFHNVSTTITEPKQITALVSNMDSLDWYNGAHGKSRDDFGDMYEGLLQKNANETKSGAGQYFTPRPLIKTIIHLLKPQPREVVQDPAAGTAGFLIEADRYVKSQTNDLDDLDGDTQDFQIHRAFIGLELVPGTRRLALMNCLLHDIEGNLDHGGAIRLGNTLGSDGENLPKAHIVATNPPFGSAAGTNITRTFVHPTSNKQLCFMQHIIETLHPGGRAAVVVPDNVLFEGGKGTDIRRDLMDKCHLHTILRLPTGIFYAQGVKTNVLFFTKGTVANPNQDKNCTDDVWVYDLRTNMPSFGKRTPFTDEHLQPFERVYGEDPHGLSPRTEGEWSFNAEETEVADSEENKNTDQHLATSRWRKFSREWIRTAKSDSLDISWLKDKDSIDADSLPEPDVLAAEAMGELVQALSELDALMRELGASDEADLQRQLLEEAFGGVKE”, the “total protein half-life in vivo” value under setting [1] turned out to be 5.68 ± 0.29 h; the “total protein half-life in vivo” value under setting [12] is 4.9709 ± 0.0002 h; the “total protein half-life in vivo” value under setting [2] stood at 4.85 ± 0.48 h; the “total protein half-life in vivo” value under setting [3] was found to be 4.72 ± 0.37 h; the “total protein half-life in vivo” value under setting [4] stood at 4.17 ± 0.28 h; the “total protein half-life in vivo” value under setting [5] was 2.586 ± 0.0099 h. For the same sequence, the “total protein half-life in vivo” value reads like this: under setting [6], 5.252 ± 0.027 h; under setting [7], 9.58 ± 1 h; under setting [8], 4.476 ± 0.014 h; under setting [9], 7.36 ± 0.36 h; under setting [10], 5.18 ± 0.24 h; under setting [11], 10.5 ± 0.66 h.
As to “MQILADLLNTIPAIDSTAMSRAQRHIDGLLKPVGSLGKLEVLAIQLAGMPGLNGIPHVGKKAVLVMCADHGVWEEGVAISPKEVTAIQAENMTRGTTGVCVLAEQAGANVHVIDVGIDTAEPIPGLINMRVARGSGNIASAPAMSRRQAEKLLLDVICYTQELAKNGVTLFGVGELGMANTTPAAAIVSTITGRDPEEVVGIGANLPTDKLANKIDVVRRAITLNQPNPQDGVDVLAKVGGFDLVGIAGVMLGAASCGLPVLLDGFLSYAAALAACQMSPAIKPYLIPSHLSAEKGARIALSHLGLEPYLNMEMRLGEGSGAALAMPIIEAACAIYNNMGELAASNIVLPGNTTSDLNS”, the “total protein half-life in vivo” value is, setting by setting: under setting [1], 4.974 ± 0.0055 h; under setting [12], 4.84 ± 1.1 h; under setting [2], 3.39 ± 0.091 h; under setting [4], 3.17 ± 0.12 h; under setting [5], 3 ± 0.2 h; under setting [6], 4.63 ± 0.68 h. The “total protein half-life in vivo” value under setting [7] came out at 8.1 ± 0.064 h; the “total protein half-life in vivo” value under setting [8] stood at 3.27 ± 0.16 h; the “total protein half-life in vivo” value under setting [9] came out at 5.18 ± 0.075 h; the “total protein half-life in vivo” value under setting [10] came out at 4.994 ± 0.018 h; the “total protein half-life in vivo” value under setting [11] came to 9.91 ± 0.96 h.
Turning to “MSSKVERERRKAQLLSQIQQQRLDLSASRREWLETTGAYDRRWNMLLSLRSWALVGSSVMAIWTIRHPNMLVRWARRGFGVWSAWRLVKTTLKQQQLRG”, the “total protein half-life in vivo” value was determined as 5.54 ± 0.84 h under setting [1]; 6 ± 0.61 h under setting [2]; 4.6 ± 1.6 h under setting [3]; 5.78 ± 0.53 h under setting [4]; 2.56 ± 0.29 h under setting [5]; 4.85 ± 0.21 h under setting [6]. The “total protein half-life in vivo” value runs as follows: under setting [7], 8.71 h; under setting [8], 5.6 ± 1.8 h; under setting [9], 11.4 h; under setting [10], 4.85 h; under setting [11], 10.2 ± 0.32 h.
Turning to “MCTTCGCGEGNLYIEGDEHNPHSAFRSAPFAPAARPKMKITGIKAPEFTPSQTEEGDLHYGHGEAGTHAPGMSQRRMLEVEIDVLDKNNRLAERNRARFAARKQLVLNLVSSPGSGKTTLLTETLMRLKDSVPCAVIEGDQQTVNDAARIRATGTPAIQVNTGKGCHLDAQMIADAAPRLPLDDNGILFIENVGNLVCPASFDLGEKHKVAVLSVTEGEDKPLKYPHMFAAASLMLLNKVDLLPYLNFDVEKCIACAREVNPEIEIILISATSGEGMDQWLNWLETQRCA [P0AAN3]”, the “total protein half-life in vivo” value came to 4.03 ± 0.57 h under setting [1]; 3.15 h under setting [12]; 2.72 ± 0.035 h under setting [2]; 3.48 ± 0.13 h under setting [3]; 3.079 ± 0.0096 h under setting [4]; 2.29 ± 0.11 h under setting [5]. The “total protein half-life in vivo” value came out at 4.19 ± 0.074 h under setting [6]; 6.66 ± 0.1 h under setting [7]; 3.14 ± 0.63 h under setting [8]; 3.83 ± 0.63 h under setting [9]; 3.69 ± 0.052 h under setting [10]; 7.22 ± 0.56 h under setting [11].
As to “MLQISHLYADYGGKPALEDINLTLESGELLVVLGPSGCGKTTLLNLIAGFVPYQHGSIQLAGKRIEGPGAERGVVFQNEGLLPWRNVQDNVAFGLQLAGIEKMQRLEIAHQMLKKVGLEGAEKRYIWQLSGGQRQRVGIARALAANPQLLLLDEPFGALDAFTRDQMQTLLLKLWQETGKQVLLITHDIEEAVFMATELVLLSSGPGRVLERLPLNFARRFVAGESSRSIKSDPQFIAMREYVLSRVFEQREAFS”, the “total protein half-life in vivo” value under setting [1] amounted to 4.76 h.
